Results: publication PMC10403730, “PABPN1 aggregation is driven by Ala expansion and poly(A)-RNA binding, leading to CFIm25 sequestration that impairs alternative polyadenylation”

Biological target: T1, EGFP-PABPN1-10A-ΔCT (Homo sapiens, UniProt Q86U42 1-254)
T1 sequence: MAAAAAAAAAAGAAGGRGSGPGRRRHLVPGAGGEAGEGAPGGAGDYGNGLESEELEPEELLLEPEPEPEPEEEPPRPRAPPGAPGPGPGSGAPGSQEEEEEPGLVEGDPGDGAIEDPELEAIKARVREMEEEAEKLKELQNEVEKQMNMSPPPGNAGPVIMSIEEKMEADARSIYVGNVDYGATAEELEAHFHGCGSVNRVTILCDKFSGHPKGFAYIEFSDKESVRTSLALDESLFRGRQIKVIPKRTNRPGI
Assay: EMSA; 2 nM dA50, 0-5 uM protein; 50 mM Tris-HCl, 150 mM NaCl, 2 mM MgCl2, pH 7.5, 30 min at room temperature; 6% native gel
Details: protein: recombinant; tags: N-terminal EGFP, C-terminal His; label: 5'-Cy5; single-stranded

AAAAAAAAAAAAAAAAAAAAAAAAAAAAAAAAAAAAAAAAAAAAAAAAAA (ssDNA) [Cy5-dA50]
binding result: binds
